In test [1] the target is Fluorescence quenched C4 P4-P4' substrate, 2-aminobenzoate-GLQRALEI-Lys(Dinitrophenol)-NH2.
The target of test [2] is Complement component C4.

Consider “Recombinant human C1s K628A mutant, activated (from UniProt P09871 16-688) (enzyme)”, for which the kcat/K0.5 for cleavage of the fluorescence quenched C4 P4-P4' peptide (400 nM enzyme, 0.5-500 uM substrate, 37 C) in test [1] was determined as 110000 M⁻¹ s⁻¹. This substance also displayed an EC50 for cleavage of the C4 alpha chain (C4 1 uM, enzyme 0-5 nM, 1 h, 37 C, SDS-PAGE densitometry) in test [2] of 0.77 nM.

As to “Recombinant human C1s K628Q mutant, activated (from UniProt P09871 16-688) (enzyme)”, in test [1], the kcat/K0.5 for cleavage of the fluorescence quenched C4 P4-P4' peptide (400 nM enzyme, 0.5-500 uM substrate, 37 C) is 95000 M⁻¹ s⁻¹. In addition, the EC50 for cleavage of the C4 alpha chain (C4 1 uM, enzyme 0-5 nM, 1 h, 37 C, SDS-PAGE densitometry) in test [2] was determined as 0.76 nM.

Take “Recombinant human C1s, wild type, activated (from UniProt P09871 16-688) (enzyme)”: in test [1], the kcat/K0.5 for cleavage of the fluorescence quenched C4 P4-P4' peptide (400 nM enzyme, 0.5-500 uM substrate, 37 C) was 82000 M⁻¹ s⁻¹. In test [2], this substance yielded an EC50 for cleavage of the C4 alpha chain (C4 1 uM, enzyme 0-5 nM, 1 h, 37 C, SDS-PAGE densitometry) of 0.16 nM.

Values taken from paper PMC4166353.
